Results as given in paper PMC3084791, “The Structure of Helicobacter pylori HP0310 Reveals an Atypical Peptidoglycan Deacetylase” (PLoS ONE, 2011).

Target: the molecule itself
Test: crystal structure; crystals at 20°C by vapor diffusion, 0.2 M ammonium sulfate, 0.1 M trisodium citrate pH 5.6, 15% PEG 4000; space group C2221; one tetramer in the asymmetric unit; 2.57 Å

B1: Peptidoglycan deacetylase (HP0310, HpPgdA) from Helicobacter pylori (enzyme)
chain: MAKEILVAYGVDIDAVAGWLGSYGGEDSPDDISRGLFAGEVGIPRLLKLFKKYHLPATWFVPGHSIETFPEQMKMIVDAGHEVGAHGYSHENPIAMSTKQEEDVLLKSVELIKDLTGKAPTGYVAPWWEFSNITNELLLKHGFKYDHSLMHNDFTPYYVRVGDSWSKIDYSLEAKDWMKPLIRGVETNLVEIPANWYLDDLPPMMFIKKSPNSFGFVSPRDIGQMWIDQFDWVYREMDYAVFSMTIHPDVSARPQVLLMHEKIIEHINKHEGVRWVTFNEIADDFLKRNPRKK
notes: HP0310 (HpPgdA), peptidoglycan deacetylase, amplified from genomic H. pylori G27 with primers from the ATG to the stop codon; soluble protein of 293 amino acids; residues 2 to 291 visible in the crystal; Cloned in pET151 in frame with an N-terminal His-tag flanked by a TEV site; the entry of strain 26695 would be another; also called His tagged-Hp0310; H. pylori peptidoglycan deacetylase; source: …
- stoichiometry N: 4
